From paper PMC9044958

Target: recombinant Fc-tagged VEGFR2 extracellular domain (VEGFR2-ECD) (UniProt P35968)
Assay: SPR; Biacore 8K, single-cycle mode, 25°C, HBS-P+ buffer; Fc-tagged VEGFR2-ECD (180 nM) captured on a protein A sensor chip at about 1,400 to 1,700 RU; analytes at 1.25, 2.5, 5, 10 and 20 nM, 30 uL/min; KD from the first on and off rates of the bivalent model

UniProt P35968, sequence (P35968 20-764): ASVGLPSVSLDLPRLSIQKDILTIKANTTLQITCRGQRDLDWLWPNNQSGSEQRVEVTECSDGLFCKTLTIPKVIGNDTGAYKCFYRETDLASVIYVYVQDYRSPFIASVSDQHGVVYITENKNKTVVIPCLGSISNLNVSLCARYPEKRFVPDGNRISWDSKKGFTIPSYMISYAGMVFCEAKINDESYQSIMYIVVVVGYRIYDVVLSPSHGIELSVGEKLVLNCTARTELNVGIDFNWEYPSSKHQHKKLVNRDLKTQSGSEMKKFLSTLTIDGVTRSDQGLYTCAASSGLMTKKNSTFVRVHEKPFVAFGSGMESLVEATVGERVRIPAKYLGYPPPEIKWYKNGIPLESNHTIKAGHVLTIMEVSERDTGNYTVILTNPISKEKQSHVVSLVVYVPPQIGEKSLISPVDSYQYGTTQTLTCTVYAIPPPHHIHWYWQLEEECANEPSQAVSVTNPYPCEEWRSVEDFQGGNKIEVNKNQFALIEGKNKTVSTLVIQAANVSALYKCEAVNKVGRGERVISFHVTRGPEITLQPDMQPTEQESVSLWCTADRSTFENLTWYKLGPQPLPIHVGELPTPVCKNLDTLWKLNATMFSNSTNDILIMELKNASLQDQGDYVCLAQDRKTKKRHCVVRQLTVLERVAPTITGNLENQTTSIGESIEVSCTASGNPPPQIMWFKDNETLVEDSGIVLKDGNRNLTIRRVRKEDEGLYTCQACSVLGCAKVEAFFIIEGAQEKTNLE

Substance	Kd
B. bacilliformis-derived BafA passenger domain (BafABba) (domain or fragment)	91.3 nM
recombinant human VEGF-A165 (ligand)	6.91 nM
B. henselae-derived BafA passenger domain (BafABhe) (domain or fragment)	2.08 nM
